Laboratory results published in patent US6506874.
Residue numbers refer to the chain shown, from its start. Names and notes keep the numbering of the source.

What was measured:
human IGFBP-1 [1] = target: T1, human IGFBP-1 (human, UniProt P08833 26-259); test: competitive phage ELISA
T1 construct: Secreted recombinant protein
T1 sequence (looked up): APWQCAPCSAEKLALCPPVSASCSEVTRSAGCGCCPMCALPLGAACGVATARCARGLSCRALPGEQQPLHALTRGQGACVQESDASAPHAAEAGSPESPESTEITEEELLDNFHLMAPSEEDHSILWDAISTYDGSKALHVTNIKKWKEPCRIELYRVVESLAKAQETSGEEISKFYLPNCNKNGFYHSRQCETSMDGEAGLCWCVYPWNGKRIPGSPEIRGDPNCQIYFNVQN
Procedure: (§1) Phage particles were harvested and resuspended in PBS buffer as described in Lowman, H. B., "Phage Display of Peptide Libraries on Protein Scaffolds," in Cabilly, S. (ed.), *Combinatorial Peptide Library Protocols* (Humana Press Inc.: Totowa, N.J., 1998), pp. 249–264. Then phage concentrations were normalized to yield a maximal ELISA signal of 0.2–0.4 for each mutant (Lowman, in Cabilly, S. (ed.), supra). Threefold serial dilutions of soluble competitor were prepared on non-absorbent microtiter plates (Nunc, F, 96 wells) with binding buffer (0.5% TWEEN™ 20/PBS) containing phage at the previously-determined concentrations. The dilution range of competitor protein extended over six orders of magnitude, starting at 5 μM for IGFBP-1 and 500 nM for IGFBP-3. After blocking, the plates containing immobilized target were washed with 0.05% TWEEN™ PBS buffer and subsequently incubated with 80 μl/well of the premixed phage-competitor solutions for 1 hour at room temperature. […] Numbers in Table I represent mean ±standard deviation of individually assessed $IC50$ values.
(§2) At least two different clones of every mutant were tested.

[2] = target: T2, recombinant human IGFBP-3 (human, UniProt P17936 28-291); test: competitive phage ELISA, soluble IGFBP-3
T2 construct: Secreted recombinant protein
T2 sequence (P17936 28-291 limits assumed): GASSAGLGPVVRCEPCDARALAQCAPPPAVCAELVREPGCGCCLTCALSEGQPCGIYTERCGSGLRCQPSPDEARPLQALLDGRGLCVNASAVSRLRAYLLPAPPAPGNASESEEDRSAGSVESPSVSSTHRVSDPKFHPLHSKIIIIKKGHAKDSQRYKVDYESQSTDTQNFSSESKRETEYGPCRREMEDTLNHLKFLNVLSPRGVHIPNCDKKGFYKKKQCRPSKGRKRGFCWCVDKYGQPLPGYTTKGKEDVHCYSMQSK
Procedure: as §1, §2

human IGFBP-1 [3] = target: T1, human IGFBP-1; test: competitive phage ELISA, soluble IGFBP-1
Procedure: as §1, §2

B1: IGF-I D12A (on G1S-A70V) displayed on phage (ligand)
chain: SPETLCGAELVAALQFVCGDRGFYFNKPTGYGSSSRRAPQTGIVDECCFRSCDLRRLEMYCAPLKPAKSV
notes: not shown: Display partner: M13 gene III protein fragment (residues 249-406) and the junction to it
Human IGFBP-1 [1]
  fold increase in binding: ~2 fold

B2: IGF-I G7A (on G1S-A70V) displayed on phage (ligand, not shown: large carriers)
chain: B1 chain with G7A, A12D
modifications: disulfide (positions not given here); not fully specified; also: displayed on M13 phage as gene III fusion
[2]
  IC50: 4.58 nM

B3: IGF-I S34A (on G1S-A70V) displayed on phage (ligand, not shown: large carriers)
chain: B1 chain with A12D, S34A
Human IGFBP-1 [3]
  IC50: 9.5 nM
[2]
  IC50: 1.65 nM

B4: IGF-I D45A (on G1S-A70V) displayed on phage (ligand)
chain: B1 chain with A12D, D45A
notes: not shown: M13 gene III fragment (residues 249-406) used as phage-display carrier, and its junction to IGF-I
Human IGFBP-1 [1]
  fold increase in binding: ~2 fold

B5: IGF-I E9A (on G1S-A70V) displayed on phage (ligand, not shown: large carriers)
chain: B1 chain with E9A, A12D
modifications: disulfide (positions not given here); not fully specified; also: displayed on M13 phage as gene III fusion
Human IGFBP-1 [3]
  IC50: 8.6 nM
[2]
  IC50: 1.32 nM

B6: IGF-I Y31A (on G1S-A70V) displayed on phage (ligand, not shown: large carriers)
chain: B1 chain with A12D, Y31A
Human IGFBP-1 [3]
  IC50: 6.8 nM
[2]
  IC50: 0.73 nM

B7: IGF-I S33A (on G1S-A70V) displayed on phage (ligand, not shown: large carriers)
chain: B1 chain with A12D, S33A
Human IGFBP-1 [3]
  IC50: 9.1 nM
[2]
  IC50: 1.01 nM

B8: IGF-I G32A (on G1S-A70V) displayed on phage (ligand, not shown: large carriers)
chain: B1 chain with A12D, G32A
Human IGFBP-1 [3]
  IC50: 10.9 nM
[2]
  IC50: 0.76 nM

B9: IGF-I P28A (on G1S-A70V) displayed on phage (ligand, not shown: large carriers; small tags and cut ends)
chain: B1 chain with A12D, P28A
Human IGFBP-1 [3]
  IC50: 9.3 nM
[2]
  IC50: 1.41 nM

B10: IGF-I P2A (on G1S-A70V) displayed on phage (ligand)
chain: B1 chain with P2A, A12D
notes: as for B4
Human IGFBP-1 [3]
  IC50: 11 nM
[2]
  IC50: 0.81 nM

B11: IGF-I G30A (on G1S-A70V) displayed on phage (ligand, not shown: large carriers)
chain: B1 chain with A12D, G30A
Human IGFBP-1 [3]
  IC50: 7.1 nM
[2]
  IC50: 0.58 nM

B12: IGF-I T29A (on G1S-A70V) displayed on phage (ligand, not shown: large carriers)
chain: B1 chain with A12D, T29A
Human IGFBP-1 [3]
  IC50: 7.3 nM
[2]
  IC50: 1.23 nM
